System: 293T cells
Experiment: Modified pGL4.72[hRlucCP] vector luciferase assay of RNAi/miRNA activity
Assay type: cell-based
Conditions: overexpression from pEGFP-C1; 10 nM vector-target RNAi; 48 hours post-transfection; FIG. 30
Method: To identify additional substrate proteins of PAPR13, immunoprecipitation experiments were performed on lysate from HeLa cells transfected with a pEGFP-C1 plasmid containing a sequence encoding a PARP13-GFP fusion protein following treatment with either 0 or 250 μM sodium arsenite for 30 minutes. The cell lysate was treated with an anti-GFP antibody and the resulting immunoprecipitated proteins were electrophoresed using SDS-PAGE. […] In a second set of experiments, the ability of the vector-target RNAi to reduce the expression of luciferase was measured in 293T cells transfected with pGL4.72[hRlucCP]™ vector, 20 nM vector-target RNAi, and 20 nM of negative RNAi control for PARP13 siRNA (siNeg; AllStars Negative Control siRNA; Qiagen Catalog No. 1027280) or PARP13 siRNA (siPARP13; SEQ ID NO: 40) following treatment with 0 or 30 nM pateamine A for 2 hours. […]
Experiments to determine the effect of knockdown of PARP13 on miRNA and RNAi activity were performed using a modified pGL4.72[hRlucCP]™-vector assay (Promega). […] Following 48-hours incubation, the level of luciferase protein production was measured using a luciferase assay kit (Promega). […]

B1: PARP13: PARP13 overexpressed from a pEGFP-C1 expression vector; isoform not specified (protein)
chain: ADPEVCCFITKILCAHGGRMALDALLQEIALSEPQLCEVLQVAGPDRFVVLETGGEAGITRSVVATTRARVCRRKYCQRPCDNLHLCKLNLLGRCNYSQSERNLCKYSHEVLSEENFKVLKNHELSGLNKEELAVLLLQSDPFFMPEICKSYKGEGRQQICNQQPPCSRLHICDHFTRGNCRFPNCLRSHNLMDRKVLAIMREHGLNPDVVQNIQDICNSKHMQKNPPGPRAPSSHRRNMAYRARSKSRDRFFQGSQEFLASASASAERSCTPSPDQISHRASLEDAPVDDLTRKFTYLGSQDRARPPSGSSKATDLGGTSQAGTSQRFLENGSQEDLLHGNPGSTYLASNSTSAPNWKSLTSWTNDQGARRKTVFSPTLPAARSSLGSLQTPEAVTTRKGTGLLSSDYRIINGKSGTQDIQPGPLFNNNADGVATDITSTRSLNYKSTSSGHREISSPRIQDAGPASRDVQATGRIADDADPRVALVNDSLSDVTSTTSSRVDDHDSEEICLDHLCKGCPLNGSCSKVHFHLPYRWQMLIGKTWTDFEHMETIEKGYCNPGIHLCSVGSYTINFRVMSCDSFPIRRLSTPSSVTKPANSVFTTKWIWYWKNESGTWIQYGEEKDKRKNSNVDSSYLESLYQSCPRGVVPFQAGSRNYELSFQGMIQTNIASKTQKDVIRRPTFVPQWYVQQMKRGPDHQPAKTSSVSLTATFRPQEDFCFLSSKKYKLSEIHHLHPEYVRVSEHFKASMKNFKIEKIKKIENSELLDKFTWKKSQMKEEGKLLFYATSRAYVESICSNNFDSFLHETHENKYGKGIYFAKDAIYSHKNCPYDAKNVVMFVAQVLVGKFTEGNITYTSPPPQFDSCVDTRSNPSVFVIFQKDQVYPQYVIEYTEDKACVIS
- decrease in the level of miRNA-mediated repression compared to control cells (EGFP- and G3BP-overexpressing cells): 3 fold

From US8268550B2, “Compositions and methods for identification of PARP function, inhibitors, and activators” (Massachusetts Institute of Technology, priority 2009, dated 2012)
